Assay results published in the supplement of paper PMC5998384.

What was measured:
HeLa Kyoto [1] = assay: thermal stability score vs G1/S (z-score of summed log2 fold changes over temperatures); higher = more thermally stable than in G1/S
HeLa Kyoto [2] = assay: melting temperature (median over replicates), in situ; higher = more thermally stable
HeLa Kyoto [3] = assay: solubility change mitosis vs G1/S (difference of NP-40 vs SDS log2 ratios) (log2 ratio difference); higher = more soluble in mitosis
HeLa Kyoto [4] = assay: solubility in G1/S (NP-40 vs SDS abundance) (log2 ratio); higher = more soluble; details: cell cycle stage: G1/S
[5] = cell cycle stage: early G1 (4.5 h after nocodazole release)
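For melting temperature (median over replicates), in situ in this document: HeLa Kyoto cells synchronized by double thymidine or nocodazole block, proteins quantified by TMT10plex mass spectrometry, three independent biological replicates.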
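For solubility change mitosis vs G1/S (difference of NP-40 vs SDS log2 ratios) in this document: synchronized HeLa Kyoto cells (double thymidine block for G1/S, nocodazole release for mitosis), protein amounts in NP-40 versus SDS lysates quantified by mass spectrometry, three biological replicates.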
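For solubility in G1/S (NP-40 vs SDS abundance) in this document: HeLa Kyoto cells arrested at G1/S by double thymidine block, proteins quantified by TMT10plex mass spectrometry in mild NP-40 versus SDS extracts, three biological replicates.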
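For thermal stability score vs G1/S (z-score of summed log2 fold changes over temperatures) in this document: synchronized HeLa Kyoto cells, proteins quantified by TMT10plex mass spectrometry, three biological replicates, mitosis taken 0.5 h after nocodazole release, G1/S directly after double thymidine block.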

| Substance | thermal stability score (HeLa Kyoto [1]; [5]) | thermal stability score (HeLa Kyoto [1]; cell cycle stage: mitosis) | melting temperature (HeLa Kyoto [2]; cell cycle stage: G1/S) | melting temperature (HeLa Kyoto [2]; cell cycle stage: mitosis) | solubility change mitosis (log2) (HeLa Kyoto [3]) | solubility in G1/S (log2) (HeLa Kyoto [4]) |
| --- | --- | --- | --- | --- | --- | --- |
| MLVSGRRRLLTVLLQAQKWPFQPSRDMRLVQFRAPHLVGPHLGLETGNGGGVINLNAFDPTLPKTMTQFLEQGEATLSVARRALAAQLPVLPRSEVTFLAPVTRPDKVVCVGMNYVDHCKEQNVPVPKEPIIFSKFASSIVGPYDEVVLPPQSQEVDWEVELAVVIGKKGKHIKATDAMAHVAGFTVAHDVSARDWQMRRNGKQWLLGKTFDTFCPLGPALVTKDSVADPHNLKICCRVNGEVVQSGNTNQMVFKTEDLIAWVSQFVTFYPGDVILTGTPPGVGVFRKPPVFLKKGDEVQCEIEELGVIINKVV [FAHD2A] | -1.17 | -2.54 | 55.7 °C | 56.4 °C | -0.192 | 0.253 |
| MADAASQVLLGSGLTILSQPLMYVKVLIQVGYEPLPPTIGRNIFGRQVCQLPGLFSYAQHIASIDGRRGLFTGLTPRLCSGVLGTVVHGKVLQHYQESDKGEELGPGNVQKEVSSSFDHVIKETTREMIARSAATLITHPFHVITLRSMVQFIGRESKYCGLCDSIITIYREEGILGFFAGLVPRLLGDILSLWLCNSLAYLVNTYALDSGVSTMNEMKSYSQAVTGFFASMLTYPFVLVSNLMAVNNCGLAGGCPPYSPIYTSWIDCWCMLQKEGNMSRGNSLFFRKVPFGKTYCCDLKMLI [MTCH2] | -2.66 | -2.99 | 56.6 °C | 57 °C | -0.018 | 0.00924 |
| MGLYAAAAGVLAGVESRQGSIKGLVYSSNFQNVKQLYALVCETQRYSAVLDAVIASAGLLRAEKKLRPHLAKVLVYELLLGKGFRGGGGRWKALLGRHQARLKAELARLKVHRGVSRNEDLLEVGSRPGPASQLPRFVRVNTLKTCSDDVVDYFKRQGFSYQGRASSLDDLRALKGKHFLLDPLMPELLVFPAQTDLHEHPLYRAGHLILQDRASCLPAMLLDPPPGSHVIDACAAPGNKTSHLAALLKNQGKIFAFDLDAKRLASMATLLARAGVSCCELAEEDFLAVSPSDPRYHEVHYILLDPSCSGSGMPSRQLEEPGAGTPSPVRLHALAGFQQRALCHALTFPSLQRLVYSTCSLCQEENEDVVRDALQQNPGAFRLAPALPAWPHRGLSTFPGAEHCLRASPETTLSSGFFVAVIERVEVPR [NSUN5] | 0.348 | -0.0976 | 48.7 °C | 50.2 °C | 0.282 | -0.194 |
| MRQKHYLEAAARGLHDSCPGQARYLLWAYTSSHDDKSTFEETCPYCFQLLVLDNSRVRLKPKARLTPKIQKLLNREARNYTLSFKEAKMVKKFKDSKSVLLITCKTCNRTVKHHGKSRSFVSTLKSNPATPTSKLSLKTPERRTANPNHDMSGSKGKSPASVFRTPTSGQSVSTCSSKNTSKTKKHFSQLKMLLSQNESQKIPKVDFRNFLSSLKGGLLK [C18ORF21] | -0.862 | -0.417 |  | 46.8 °C | 2.72 | -0.722 |
| MGGFFSSIFSSLFGTREMRILILGLDGAGKTTILYRLQVGEVVTTIPTIGFNVETVTYKNLKFQVWDLGGQTSIRPYWRCYYSNTDAVIYVVDSCDRDRIGISKSELVAMLEEEELRKAILVVFANKQDMEQAMTSSEMANSLGLPALKDRKWQIFKTSATKGTGLDEAMEWLVETLKSRQ [ARL1] | 2.08 | -0.342 | 50.3 °C | 50.9 °C | -0.202 | -0.143 |
| MGYFRCARAGSFGRRRKMEPSTAARAWALFWLLLPLLGAVCASGPRTLVLLDNLNVRETHSLFFRSLKDRGFELTFKTADDPSLSLIKYGEFLYDNLIIFSPSVEDFGGNINVETISAFIDGGGSVLVAASSDIGDPLRELGSECGIEFDEEKTAVIDHHNYDISDLGQHTLIVADTENLLKAPTIVGKSSLNPILFRGVGMVADPDNPLVLDILTGSSTSYSFFPDKPITQYPHAVGKNTLLIAGLQARNNARVIFSGSLDFFSDSFFNSAVQKAAPGSQRYSQTGNYELAVALSRWVFKEEGVLRVGPVSHHRVGETAPPNAYTVTDLVEYSIVIQQLSNGKWVPFDGDDIQLEFVRIDPFVRTFLKKKGGKYSVQFKLPDVYGVFQFKVDYNRLGYTHLYSSTQVSVRPLQHTQYERFIPSAYPYYASAFSMMLGLFIFSIVFLHMKEKEKSD [DDOST] | 2.5 | 2.41 | 54.1 °C | 54.2 °C | -0.163 | -0.0357 |
| MFKKFDEKENVSNCIQLKTSVIKGIKNQLIEQFPGIEPWLNQIMPKKDPVKIVRCHEHIEILTVNGELLFFRQREGPFYPTLRLLHKYPFILPHQQVDKGAIKFVLSGANIMCPGLTSPGAKLYPAAVDTIVAIMAEGKQHALCVGVMKMSAEDIEKVNKGIGIENIHYLNDGLWHMKTYK [MCTS1] | -1.29 | -1.6 | 54.8 °C | 54.5 °C | -0.0597 | 0.267 |
| MSKLKVIPEKSLTNNSRIVGLLAQLEKINAEPSESDTARYVTSKILHLAQSQEKTRREMTAKGSTGMEILLSTLENTKDLQTTLNILSILVELVSAGGGRRVSFLVTKGGSQILLQLLMNASKESPPHEDLMVQIHSILAKIGPKDKKFGVKARINGALNITLNLVKQNLQNHRLVLPCLQLLRVYSANSVNSVSLGKNGVVELMFKIIGPFSKKNSSLIKVALDTLAALLKSKTNARRAVDRGYVQVLLTIYVDWHRHDNRHRNMLIRKGILQSLKSVTNIKLGRKAFIDANGMKILYNTSQECLAVRTLDPLVNTSSLIMRKCFPKNRLPLPTIKSSFHFQLPVIPVTGPVAQLYSLPPEVDDVVDESDDNDDIDVEAENETENEDDLDQNFKNDDIETDINKLKPQQEPGRTIEDLKMYEHLFPELVDDFQDYDLISKEPKPFVFEGKVRGPIVVPTAGEETSGNSGNLRKVVMKENISSKGDEGEKKSTFMDLAKEDIKDNDRTLQQQPGDQNRTISSVHGLNNDIVKALDRITLQNIPSQTAPGFTAEMKKDCSLPLTVLTCAKACPHMATCGNVLFEGRTVQLGKLCCTGVETEDDEDTESNSSVEQASVEVPDGPTLHDPDLYIEIVKNTKSVPEYSEVAYPDYFGHIPPPFKEPILERPYGVQRTKIAQDIERLIHQSDIIDRVVYDLDNPNYTIPEEGDILKFNSKFESGNLRKVIQIRKNEYDLILNSDINSNHYHQWFYFEVSGMRPGVAYRFNIINCEKSNSQFNYGMQPLMYSVQEALNARPWWIRMGTDICYYKNHFSRSSVAAGGQKGKSYYTITFTVNFPHKDDVCYFAYHYPYTYSTLQMHLQKLESAHNPQQIYFRKDVLCETLSGNSCPLVTITAMPESNYYEHICHFRNRPYVFLSARVHPGETNASWVMKGTLEYLMSNNPTAQSLRESYIFKIVPMLNPDGVINGNHRCSLSGEDLNRQWQSPSPDLHPTIYHAKGLLQYLAAVKRLPLVYCDYHGHSRKKNVFMYGCSIKETVWHTNDNATSCDVVEDTGYRTLPKILSHIAPAFCMSSCSFVVEKSKESTARVVVWREIGVQRSYTMESTLCGCDQGKYKGLQIGTRELEEMGAKFCVGLLRLKRLTSPLEYNLPSSLLDFENDLIESSCKVTSPTTYVLDEDEPRFLEEVDYSAESNDELDIELAENVGDYEPSAQEEVLSDSELSRTYLP [AGTPBP1] | -0.000956 | 0.14 | 50.2 °C | 50.3 °C | -0.0731 | -0.204 |
| MASYPYRQGCPGAAGQAPGAPPGSYYPGPPNSGGQYGSGLPPGGGYGGPAPGGPYGPPAGGGPYGHPNPGMFPSGTPGGPYGGAAPGGPYGQPPPSSYGAQQPGLYGQGGAPPNVDPEAYSWFQSVDSDHSGYISMKELKQALVNCNWSSFNDETCLMMINMFDKTKSGRIDVYGFSALWKFIQQWKNLFQQYDRDRSGSISYTELQQALSQMGYNLSPQFTQLLVSRYCPRSANPAMQLDRFIQVCTQLQVLTEAFREKDTAVQGNIRLSFEDFVTMTASRML [PEF1] | -1.46 | -1.2 | 53.5 °C | 53.2 °C | 0.345 | -0.126 |
| MVKLTAELIEQAAQYTNAVRDRELDLRGYKIPVIENLGATLDQFDAIDFSDNEIRKLDGFPLLRRLKTLLVNNNRICRIGEGLDQALPCLTELILTNNSLVELGDLDPLASLKSLTYLSILRNPVTNKKHYRLYVIYKVPQVRVLDFQKVKLKERQEAEKMFKGKRGAQLAKDIARRSKTFNPGAGLPTDKKKGGPSPGDVEAIKNAIANASTLAEVERLKGLLQSGQIPGRERRSGPTDDGEEEMEEDTVTNGS [SNRPA1] | 0.145 | -1.77 | 54 °C | 54.2 °C | 0.21 | 0.281 |
| MEAAVAAPRPRLLLLVLAAAAAAAAALLPGATALQCFCHLCTKDNFTCVTDGLCFVSVTETTDKVIHNSMCIAEIDLIPRDRPFVCAPSSKTGSVTTTYCCNQDHCNKIELPTTVKSSPGLGPVELAAVIAGPVCFVCISLMLMVYICHNRTVIHHRVPNEEDPSLDRPFISEGTTLKDLIYDMTTSGSGSGLPLLVQRTIARTIVLQESIGKGRFGEVWRGKWRGEEVAVKIFSSREERSWFREAEIYQTVMLRHENILGFIAADNKDNGTWTQLWLVSDYHEHGSLFDYLNRYTVTVEGMIKLALSTASGLAHLHMEIVGTQGKPAIAHRDLKSKNILVKKNGTCCIADLGLAVRHDSATDTIDIAPNHRVGTKRYMAPEVLDDSINMKHFESFKRADIYAMGLVFWEIARRCSIGGIHEDYQLPYYDLVPSDPSVEEMRKVVCEQKLRPNIPNRWQSCEALRVMAKIMRECWYANGAARLTALRIKKTLSQLSQQEGIKM [TGFBR1] | 0.718 | 0.929 | 50.2 °C | 50.8 °C | -0.101 | -0.00326 |
| MADAEVIILPKKHKKKKERKSLPEEDVAEIQHAEEFLIKPESKVAKLDTSQWPLLLKNFDKLNVRTTHYTPLACGSNPLKREIGDYIRTGFINLDKPSNPSSHEVVAWIRRILRVEKTGHSGTLDPKVTGCLIVCIERATRLVKSQQSAGKEYVGIVRLHNAIEGGTQLSRALETLTGALFQRPPLIAAVKRQLRVRTIYESKMIEYDPERRLGIFWVSCEAGTYIRTLCVHLGLLLGVGGQMQELRRVRSGVMSEKDHMVTMHDVLDAQWLYDNHKDESYLRRVVYPLEKLLTSHKRLVMKDSAVNAICYGAKIMLPGVLRYEDGIEVNQEIVVITTKGEAICMAIALMTTAVISTCDHGIVAKIKRVIMERDTYPRKWGLGPKASQKKLMIKQGLLDKHGKPTDSTPATWKQEYVDYSESAKKEVVAEVVKAPQVVAEAAKTAKRKRESESESDETPPAAPQLIKKEKKKSKKDKKAKAGLESGAEPGDGDSDTTKKKKKKKKAKEVELVSE [DKC1] | -3.35 | -5.27 | 55.6 °C | 53.2 °C | 0.816 | -1.41 |
| MRPMRIFVNDDRHVMAKHSSVYPTQEELEAVQNMVSHTERALKAVSDWIDEQEKGSSEQAESDNMDVPPEDDSKEGAGEQKTEHMTRTLRGVMRVGLVAKGLLLKGDLDLELVLLCKEKPTTALLDKVADNLAIQLAAVTEDKYEILQSVDDAAIVIKNTKEPPLSLTIHLTSPVVREEMEKVLAGETLSVNDPPDVLDRQKCLAALASLRHAKWFQARANGLKSCVIVIRVLRDLCTRVPTWGPLRGWPLELLCEKSIGTANRPMGAGEALRRVLECLASGIVMPDGSGIYDPCEKEATDAIGHLDRQQREDITQSAQHALRLAAFGQLHKVLGMDPLPSKMPKKPKNENPVDYTVQIPPSTTYAITPMKRPMEEDGEEKSPSKKKKKIQKKEEKAEPPQAMNALMRLNQLKPGLQYKLVSQTGPVHAPIFTMSVEVDGNSFEASGPSKKTAKLHVAVKVLQDMGLPTGAEGRDSSKGEDSAEETEAKPAVVAPAPVVEAVSTPSAAFPSDATAEQGPILTKHGKNPVMELNEKRRGLKYELISETGGSHDKRFVMEVEVDGQKFQGAGSNKKVAKAYAALAALEKLFPDTPLALDANKKKRAPVPVRGGPKFAAKPHNPGFGMGGPMHNEVPPPPNLRGRGRGGSIRGRGRGRGFGGANHGGYMNAGAGYGSYGYGGNSATAGYSQFYSNGGHSGNASGGGGGGGGGSSGYGSYYQGDNYNSPVPPKHAGKKQPHGGQQKPSYGSGYQSHQGQQQSYNQSPYSNYGPPQGKQKGYNHGQGSYSYSNSYNSPGGGGGSDYNYESKFNYSGSGGRSGGNSYGSGGASYNPGSHGGYGGGSGGGSSYQGKQGGYSQSNYNSPGSGQNYSGPPSSYQSSQGGYGRNADHSMNYQYR [ILF3] | -0.903 | -1.89 | 54.1 °C | 53.9 °C | 0.113 | -0.123 |
| LSM14B | 0.76 | 1.45 | 49.6 °C | 50 °C | 0.137 | 0.0485 |
